This passage reports EC50 results from patent publication US20190343963A1 (published 2019).

In assay [1] the target is T1, FLAG-tagged human IL-13 (human, UniProt P35225 35-146). Nature of the assay: competition ELISA; 1 h incubation.
Assay [2] deals with T1, FLAG-tagged human IL-13. Description: competition ELISA; 24 h incubation.
The target in assay [3] is T1, FLAG-tagged human IL-13. Description: competition ELISA; 1 h incubation. This is another data set of the same source.
Assay [4] addresses T1, FLAG-tagged human IL-13. Nature of the assay: competition ELISA; 24 h incubation. This is another data set of the same source. (In general: ELISA stands for enzyme-linked immunosorbent assay.)

T1 sequence (P35225 35-146): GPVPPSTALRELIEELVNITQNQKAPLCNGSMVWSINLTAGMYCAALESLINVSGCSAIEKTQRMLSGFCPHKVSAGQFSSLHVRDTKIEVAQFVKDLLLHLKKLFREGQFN

B1: SH111 wt ΔK (protein)
chain: TYNGCSSSEQSALAAAASAAQSYVAESLSYLQTHTAATPRYTTWFGSYISSRHSTVLQHYTDMNSNDFSSYSFDCTCTAAGTFAYVYPNRFGTVYLCGAFWQAPTTGTDSQAGTLVHESSHFTRNGGTDDYAYGQAAAQSLATMNPDQAVMNADNHEYFSENNPAQSAAAGGGGSGDLGRRLLEAARAGQDDEVRILMANGADVNAADYFSHTPLHLAARNGHLEIVEVLLQYGADVNASDFAGRTPLHLAANDGHLEIVEVLLQHGADVNAQDIFGRTPADIAADNGHEDIAEVLQRAAGGGGSGGGGSGGGGSGGGGSGGGGSGGGGSGGGSSALDRRLLEAARAGQDDEVRILMANGADVNARDSYGSTPLHLAAREGHLEIVEVLLQYGADVNAADFIGDTPLHLAAYRGHLEIVEVLLQYGADVNASDITGETPLHLAAQIGHLEIVEVLLQHGADVNAQDIFGRTAFDISIDNGNEDLAEILQRAA
Turning to B1, the EC50 was found to be 0.065 nM in the assay with FLAG-tagged human IL-13 [1] and 0.002 nM in the assay with FLAG-tagged human IL-13 [2].

B2: SH111 E157Q ΔK (protein)
chain: TYNGCSSSEQSALAAAASAAQSYVAESLSYLQTHTAATPRYTTWFGSYISSRHSTVLQHYTDMNSNDFSSYSFDCTCTAAGTFAYVYPNRFGTVYLCGAFWQAPTTGTDSQAGTLVHESSHFTRNGGTDDYAYGQAAAQSLATMNPDQAVMNADNHQYFSENNPAQSAAAGGGGSGDLGRRLLEAARAGQDDEVRILMANGADVNAADYFSHTPLHLAARNGHLEIVEVLLQYGADVNASDFAGRTPLHLAANDGHLEIVEVLLQHGADVNAQDIFGRTPADIAADNGHEDIAEVLQRAAGGGGSGGGGSGGGGSGGGGSGGGGSGGGGSGGGSSALDRRLLEAARAGQDDEVRILMANGADVNARDSYGSTPLHLAAREGHLEIVEVLLQYGADVNAADFIGDTPLHLAAYRGHLEIVEVLLQYGADVNASDITGETPLHLAAQIGHLEIVEVLLQHGADVNAQDIFGRTAFDISIDNGNEDLAEILQRAA
For B2, the EC50 is 0.08 nM with FLAG-tagged human IL-13 [1] and 0.003 nM in the assay with FLAG-tagged human IL-13 [2].

B3: SH111 NQ ΔK (protein)
chain: TYNGCSSSEQSALAAAASAAQSYVAESLSYLQTHTAATPRYTTWFGSYISSRHSTVLQHYTDMNSNDFSSYSFDCTCTAAGTFAYVYPNRFGTVYLCGAFWQAPTTGTDSQAGTLVHESSHFTRNGGTDDYAYGQAAAQSLATMNPDQAVMNANNHQYFSENNPAQSAAAGGGGSGDLGRRLLEAARAGQDDEVRILMANGADVNAADYFSHTPLHLAARNGHLEIVEVLLQYGADVNASDFAGRTPLHLAANDGHLEIVEVLLQHGADVNAQDIFGRTPADIAADNGHEDIAEVLQRAAGGGGSGGGGSGGGGSGGGGSGGGGSGGGGSGGGSSALDRRLLEAARAGQDDEVRILMANGADVNARDSYGSTPLHLAAREGHLEIVEVLLQYGADVNAADFIGDTPLHLAAYRGHLEIVEVLLQYGADVNASDITGETPLHLAAQIGHLEIVEVLLQHGADVNAQDIFGRTAFDISIDNGNEDLAEILQRAA
With B3, the 50% effective concentration (EC50) stood at 0.705 nM with FLAG-tagged human IL-13 [1] and 0.027 nM in the assay with FLAG-tagged human IL-13 [2].

B4: 111 7g11 Alb22 NQ (protein)
chain: ATYNGCSSSEQSALAAAASAAQSYVAESLSYLQTHTAATPRYTTWFGSYISSRHSTVLQHYTDMNSNDFSSYSFDCTCTAAGTFAYVYPNRFGTVYLCGAFWQAPTTGTDSQAGTLVHESSHFTRNGGTDDYAYGQAAAQSLATMNPDQAVMNANNHQYFSENNPAQSAAAGGGGSGDLGRRLLEAARAGQDDEVRILMANGADVNAADYFSHTPLHLAARNGHLEIVEVLLQAGADVNASDFAGKTPLHLAANDGHLEIVEVLLQHGADVNAQDIFGRTPADIAADAGHEDIAEVLQRLNGGGGSGGGGSGGGGSGGGGSGGGGSGGGGSGGGSSGLDRRLLEAARAGQDDEVRILMANGADVNATDEFDSTPLHLAARHGHLEIVEVLLQYGADVNAADFIGDTPLHLAAYRGHLEIVEVLLQYGVDVNADDHGDTPLHLAASTGHLEIVEVLLQHGADVNAQDIFGRTAFDISIDNGNEDLAEILQRAA
Take B4: the EC50 was 0.075 nM with FLAG-tagged human IL-13 [3] and 0.0069 nM with FLAG-tagged human IL-13 [4].

B5: SH111 D154N ΔK (protein)
chain: SSYSFDCTCTAAGTFAYVYPNRFGTVYLCGAFWQAPTTGTDSQAGTLVHESSHFTRNGGTDDYAYGQAAAQSLATMNPDQAVMNANNHEYFSENNPAQSAAAGGGGSGDLGRRLLEAARAGQDDEVRILMANGADVNAADYFSHTPLHLAARNGHLEIVEVLLQYGADVNASDFAGRTPLHLAANDGHLEIVEVLLQHGADVNAQDIFGRTPADIAADNGHEDIAEVLQRAAGGGGSGGGGSGGGGSGGGGSGGGGSGGGGSGGGSSALDRRLLEAARAGQDDEVRILMANGADVNARDSYGSTPLHLAAREGHLEIVEVLLQYGADVNAADFIGDTPLHLAAYRGHLEIVEVLLQYGADVNASDITGETPLHLAAQIGHLEIVEVLLQHGADVNAQDIFGRTAFDISIDNGNEDLAEILQRAA
Turning to B5, the figures for the EC50 with FLAG-tagged human IL-13 [1] and with FLAG-tagged human IL-13 [2] were 0.802 nM and 0.015 nM, respectively.

B6: 111 7g11 Alb22 (protein)
chain: TYNGCSSSEQSALAAAASAAQSYVAESLSYLQTHTAATPRYTTWFGSYISSRHSTVLQHYTDMNSNDFSSYSFDCTCTAAGTFAYVYPNRFGTVYLCGAFWQAPTTGTDSQAGTLVHESSHFTRNGGTDDYAYGQAAAQSLATMNPDQAVMNADNHEYFSENNPAQSAAAGGGGSGDLGRRLLEAARAGQDDEVRILMANGADVNAADYFSHTPLHLAARNGHLEIVEVLLQAGADVNASDFAGKTPLHLAANDGHLEIVEVLLQHGADVNAQDIFGRTPADIAADAGHEDIAEVLQRLNGGGGSGGGGSGGGGSGGGGSGGGGSGGGGSGGGSSGLDRRLLEAARAGQDDEVRILMANGADVNATDEFDSTPLHLAARHGHLEIVEVLLQYGADVNAADFIGDTPLHLAAYRGHLEIVEVLLQYGVDVNADDHGDTPLHLAASTGHLEIVEVLLQHGADVNAQDIFGRTAFDISIDNGNEDLAEILQRAA
As for B6, the figures for the EC50 with FLAG-tagged human IL-13 [3] and in the assay with FLAG-tagged human IL-13 [4] were 0.019 nM and 0.0036 nM, respectively.

B7: IL-13 DARPin ΔK (protein)
chain: ALDRRLLEAARAGQDDEVRILMANGADVNARDSYGSTPLHLAAREGHLEIVEVLLQYGADVNAADFIGDTPLHLAAYRGHLEIVEVLLQYGADVNASDITGETPLHLAAQIGHLEIVEVLLQHGADVNAQDIFGRTAFDISIDNGNEDLAEILQRAA
With B7, the EC50 came to 13.7 nM in the assay with FLAG-tagged human IL-13 [1] and 21.2 nM with FLAG-tagged human IL-13 [2].

The EC50 is the midpoint of the concentration-response curve.
